Source: the supplement of paper PMC6757056
± gives the standard deviation of the averaged measurements.

B1: library; a variant is named by its letters at N, in order (parent)
chain: GCUGUCACCGAGAAACUGUGAAGUAUAUCUUAAACCUGGGCACUUAAAAGAUAUAUGGAGUUAGUAGUGCAACCUGCUCGGUCUGAUGAGUCCNNNNNNGGACGAAACAGC

Legend:
cyclic di-GMP [1] = variants of: B1; assay: normalized RNA/DNA level without ligand (relative to sTRSVctl = 100) (log10 (% of sTRSVctl)); HEK293T; ligand: cyclic di-GMP (c-di-GMP-II aptamer); higher = less ribozyme self-cleavage, higher mRNA level; conditions: reporter: mCherry (pCS4076), ligand present: no
How it was run: (§1)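 Library plasmids carrying ribozyme switches linked to mCherry, or to eGFP in some ligand experiments, were transfected into HEK293T at 4 µg per 6-well well, with any ligand added 1 h earlier. Seventy-two hours on, total RNA was extracted with EDTA and reverse-transcribed, amplified, barcoded and sequenced. RNA level was RNA over DNA reads normalized to a spiked-in non-cleaving sequence or to the top sequences, then scaled and log-transformed. The top set was 25 sequences, the transform was ×100 and log10, and sequences needed ≥100 DNA reads.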

cyclic di-GMP [2] = variants of: B1; assay: normalized RNA/DNA level with ligand (relative to sTRSVctl = 100) (log10 (% of sTRSVctl)); HEK293T; ligand: cyclic di-GMP (c-di-GMP-II aptamer); ligand concentration (+) RNA-Seq: 1 mM; higher = less ribozyme self-cleavage, higher mRNA level; conditions: reporter: mCherry (pCS4076), ligand present: yes
How it was run: as §1

Variant | normalized RNA/DNA level without ligand (log10) (cyclic di-GMP [1]) | normalized RNA/DNA level with ligand (log10) (cyclic di-GMP [2])
GCUGUCACCGAGAAACUGUGAAGUAUAUCUUAAACCUGGGCACUUAAAAGAUAUAUGGAGUUAGUAGUGCAACCUGCUCGGUCUGAUGAGUCCACUAACGGACGAAACAGC [ACUAAC] | 1.607 ± 0.015 | 1.76 ± 0.15
GCUGUCACCGAGAAACUGUGAAGUAUAUCUUAAACCUGGGCACUUAAAAGAUAUAUGGAGUUAGUAGUGCAACCUGCUCGGUCUGAUGAGUCCCCUAAAGGACGAAACAGC [CCUAAA] | 1.4 ± 0.07 | 1.61 ± 0.14
GCUGUCACCGAGAAACUGUGAAGUAUAUCUUAAACCUGGGCACUUAAAAGAUAUAUGGAGUUAGUAGUGCAACCUGCUCGGUCUGAUGAGUCCCCUAAGGGACGAAACAGC [CCUAAG] | 1.56 ± 0.049 | 1.74 ± 0.095
GCUGUCACCGAGAAACUGUGAAGUAUAUCUUAAACCUGGGCACUUAAAAGAUAUAUGGAGUUAGUAGUGCAACCUGCUCGGUCUGAUGAGUCCCCUAACGGACGAAACAGC [CCUAAC] | 1.66 ± 0.033 | 1.8 ± 0.097
GCUGUCACCGAGAAACUGUGAAGUAUAUCUUAAACCUGGGCACUUAAAAGAUAUAUGGAGUUAGUAGUGCAACCUGCUCGGUCUGAUGAGUCCCCUAAUGGACGAAACAGC [CCUAAU] | 1.53 ± 0.042 | 1.73 ± 0.14
GCUGUCACCGAGAAACUGUGAAGUAUAUCUUAAACCUGGGCACUUAAAAGAUAUAUGGAGUUAGUAGUGCAACCUGCUCGGUCUGAUGAGUCCACGUUCGGACGAAACAGC [ACGUUC] | 1.61 ± 0.045 | 1.8 ± 0.1
GCUGUCACCGAGAAACUGUGAAGUAUAUCUUAAACCUGGGCACUUAAAAGAUAUAUGGAGUUAGUAGUGCAACCUGCUCGGUCUGAUGAGUCCACGUUAGGACGAAACAGC [ACGUUA] | 1.49 ± 0.045 | 1.65 ± 0.13
GCUGUCACCGAGAAACUGUGAAGUAUAUCUUAAACCUGGGCACUUAAAAGAUAUAUGGAGUUAGUAGUGCAACCUGCUCGGUCUGAUGAGUCCACGUUGGGACGAAACAGC [ACGUUG] | 1.52 ± 0.083 | 1.74 ± 0.035
GCUGUCACCGAGAAACUGUGAAGUAUAUCUUAAACCUGGGCACUUAAAAGAUAUAUGGAGUUAGUAGUGCAACCUGCUCGGUCUGAUGAGUCCGCUACAGGACGAAACAGC [GCUACA] | 1.583 ± 0.0028 | 1.79 ± 0.072
GCUGUCACCGAGAAACUGUGAAGUAUAUCUUAAACCUGGGCACUUAAAAGAUAUAUGGAGUUAGUAGUGCAACCUGCUCGGUCUGAUGAGUCCGCUACCGGACGAAACAGC [GCUACC] | 1.67 ± 0.065 | 1.84 ± 0.098
GCUGUCACCGAGAAACUGUGAAGUAUAUCUUAAACCUGGGCACUUAAAAGAUAUAUGGAGUUAGUAGUGCAACCUGCUCGGUCUGAUGAGUCCCCUACAGGACGAAACAGC [CCUACA] | 1.53 ± 0.07 | 1.77 ± 0.044
GCUGUCACCGAGAAACUGUGAAGUAUAUCUUAAACCUGGGCACUUAAAAGAUAUAUGGAGUUAGUAGUGCAACCUGCUCGGUCUGAUGAGUCCGCGUUCGGACGAAACAGC [GCGUUC] | 1.34 ± 0.19 | 1.55 ± 0.13
GCUGUCACCGAGAAACUGUGAAGUAUAUCUUAAACCUGGGCACUUAAAAGAUAUAUGGAGUUAGUAGUGCAACCUGCUCGGUCUGAUGAGUCCGCGUUAGGACGAAACAGC [GCGUUA] | 1.54 ± 0.054 | 1.75 ± 0.11
GCUGUCACCGAGAAACUGUGAAGUAUAUCUUAAACCUGGGCACUUAAAAGAUAUAUGGAGUUAGUAGUGCAACCUGCUCGGUCUGAUGAGUCCGCGUUGGGACGAAACAGC [GCGUUG] | 1.56 ± 0.042 | 1.75 ± 0.11
GCUGUCACCGAGAAACUGUGAAGUAUAUCUUAAACCUGGGCACUUAAAAGAUAUAUGGAGUUAGUAGUGCAACCUGCUCGGUCUGAUGAGUCCUCGUUCGGACGAAACAGC [UCGUUC] | 1.739 ± 0.0071 | 1.88 ± 0.11
GCUGUCACCGAGAAACUGUGAAGUAUAUCUUAAACCUGGGCACUUAAAAGAUAUAUGGAGUUAGUAGUGCAACCUGCUCGGUCUGAUGAGUCCUCGUUUGGACGAAACAGC [UCGUUU] | 1.68 ± 0.042 | 1.85 ± 0.11
GCUGUCACCGAGAAACUGUGAAGUAUAUCUUAAACCUGGGCACUUAAAAGAUAUAUGGAGUUAGUAGUGCAACCUGCUCGGUCUGAUGAGUCCUCGUUGGGACGAAACAGC [UCGUUG] | 1.61 ± 0.14 | 1.83 ± 0.096
GCUGUCACCGAGAAACUGUGAAGUAUAUCUUAAACCUGGGCACUUAAAAGAUAUAUGGAGUUAGUAGUGCAACCUGCUCGGUCUGAUGAGUCCUCGUUAGGACGAAACAGC [UCGUUA] | 1.44 ± 0.076 | 1.63 ± 0.051
GCUGUCACCGAGAAACUGUGAAGUAUAUCUUAAACCUGGGCACUUAAAAGAUAUAUGGAGUUAGUAGUGCAACCUGCUCGGUCUGAUGAGUCCGCUAAAGGACGAAACAGC [GCUAAA] | 1.46 ± 0.085 | 1.67 ± 0.11
GCUGUCACCGAGAAACUGUGAAGUAUAUCUUAAACCUGGGCACUUAAAAGAUAUAUGGAGUUAGUAGUGCAACCUGCUCGGUCUGAUGAGUCCGCUAACGGACGAAACAGC [GCUAAC] | 1.49 ± 0.023 | 1.7 ± 0.15
GCUGUCACCGAGAAACUGUGAAGUAUAUCUUAAACCUGGGCACUUAAAAGAUAUAUGGAGUUAGUAGUGCAACCUGCUCGGUCUGAUGAGUCCGCUAAGGGACGAAACAGC [GCUAAG] | 1.49 ± 0.032 | 1.71 ± 0.1
GCUGUCACCGAGAAACUGUGAAGUAUAUCUUAAACCUGGGCACUUAAAAGAUAUAUGGAGUUAGUAGUGCAACCUGCUCGGUCUGAUGAGUCCUCUACAGGACGAAACAGC [UCUACA] | 1.71 ± 0.025 | 1.86 ± 0.16
GCUGUCACCGAGAAACUGUGAAGUAUAUCUUAAACCUGGGCACUUAAAAGAUAUAUGGAGUUAGUAGUGCAACCUGCUCGGUCUGAUGAGUCCUCUAACGGACGAAACAGC [UCUAAC] | 1.6887 ± 0.0016 | 1.83 ± 0.13
GCUGUCACCGAGAAACUGUGAAGUAUAUCUUAAACCUGGGCACUUAAAAGAUAUAUGGAGUUAGUAGUGCAACCUGCUCGGUCUGAUGAGUCCUCUAAGGGACGAAACAGC [UCUAAG] | 1.64 ± 0.079 | 1.82 ± 0.072
GCUGUCACCGAGAAACUGUGAAGUAUAUCUUAAACCUGGGCACUUAAAAGAUAUAUGGAGUUAGUAGUGCAACCUGCUCGGUCUGAUGAGUCCCCGUUUGGACGAAACAGC [CCGUUU] | 1.53 ± 0.058 | 1.71 ± 0.14
GCUGUCACCGAGAAACUGUGAAGUAUAUCUUAAACCUGGGCACUUAAAAGAUAUAUGGAGUUAGUAGUGCAACCUGCUCGGUCUGAUGAGUCCCCGUUCGGACGAAACAGC [CCGUUC] | 1.6 ± 0.047 | 1.78 ± 0.056
